Columns and labels:
ST-pro-factor D-His = ST-pro-factor D-His (UniProt P00746)
pro-factor D-His = pro-factor D-His (UniProt P00746)

Sequence of full length wild type recombinant human MASP-3 (chain): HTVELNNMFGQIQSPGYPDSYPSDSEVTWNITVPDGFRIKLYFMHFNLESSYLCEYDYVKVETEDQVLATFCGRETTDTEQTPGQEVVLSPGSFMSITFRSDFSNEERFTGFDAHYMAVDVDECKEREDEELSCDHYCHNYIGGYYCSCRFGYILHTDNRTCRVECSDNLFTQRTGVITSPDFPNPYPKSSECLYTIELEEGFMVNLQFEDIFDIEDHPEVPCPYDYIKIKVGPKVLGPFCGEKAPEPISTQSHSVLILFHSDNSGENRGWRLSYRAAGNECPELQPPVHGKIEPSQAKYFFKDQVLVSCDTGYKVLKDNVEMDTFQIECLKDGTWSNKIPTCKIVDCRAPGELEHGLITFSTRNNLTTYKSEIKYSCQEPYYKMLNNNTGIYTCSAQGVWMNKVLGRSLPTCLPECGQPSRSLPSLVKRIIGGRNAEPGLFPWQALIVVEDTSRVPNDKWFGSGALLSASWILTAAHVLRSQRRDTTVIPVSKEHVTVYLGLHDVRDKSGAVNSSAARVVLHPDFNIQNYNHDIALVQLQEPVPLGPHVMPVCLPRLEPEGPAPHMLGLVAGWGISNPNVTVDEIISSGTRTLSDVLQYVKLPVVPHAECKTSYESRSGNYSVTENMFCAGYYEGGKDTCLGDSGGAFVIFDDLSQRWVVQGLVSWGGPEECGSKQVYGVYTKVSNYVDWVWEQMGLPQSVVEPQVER

Substance | cleavage of pro-factor D (Western blot) (ST-pro-factor D-His) | cleavage of pro-factor D (Western blot) (pro-factor D-His)
full length wild type recombinant human MASP-3 | only full length MASP-3 (lane 2) and the MASP-1 CCP1-CCP2-SP) fragment (lane 5) cleaved ST-pro-factor D-His6 | Identical results were obtained with the pro-factor D-His6 polypeptide (not shown)
catalytically-inactive full length MASP-3 (S679A) | The catalytically-inactive full length MASP-3 (S679A; lane 3) and MASP-1 (S646A; lane 3) failed to cleave either substrate | The catalytically-inactive full length MASP-3 (S679A; lane 3) and MASP-1 (S646A; lane 3) failed to cleave either substrate

Reference: patent US20130344073
